Measured values as given in US20030119096A1 (published 2003).

T1: rat GALR3 receptor (rat, UniProt O88626 1-370)
T1 construct: also called rGALR3; rGalR3
T1 sequence: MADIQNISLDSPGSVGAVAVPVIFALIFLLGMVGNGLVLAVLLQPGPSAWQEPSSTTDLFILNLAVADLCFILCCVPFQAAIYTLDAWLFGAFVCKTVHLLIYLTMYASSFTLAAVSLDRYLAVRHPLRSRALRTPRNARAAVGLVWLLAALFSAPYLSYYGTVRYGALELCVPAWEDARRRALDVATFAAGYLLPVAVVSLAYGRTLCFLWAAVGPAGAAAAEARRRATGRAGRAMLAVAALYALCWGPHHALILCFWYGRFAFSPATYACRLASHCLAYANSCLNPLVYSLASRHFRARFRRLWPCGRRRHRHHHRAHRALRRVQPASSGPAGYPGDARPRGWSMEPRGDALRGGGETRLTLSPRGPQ


How the values were obtained:
rat GALR2 receptor (rat) = rat GALR2 receptor (rat) (UniProt O08726); assay: cell-based or functional assay
Chain of rat GALR2 receptor (rat) (O08726 whole entry): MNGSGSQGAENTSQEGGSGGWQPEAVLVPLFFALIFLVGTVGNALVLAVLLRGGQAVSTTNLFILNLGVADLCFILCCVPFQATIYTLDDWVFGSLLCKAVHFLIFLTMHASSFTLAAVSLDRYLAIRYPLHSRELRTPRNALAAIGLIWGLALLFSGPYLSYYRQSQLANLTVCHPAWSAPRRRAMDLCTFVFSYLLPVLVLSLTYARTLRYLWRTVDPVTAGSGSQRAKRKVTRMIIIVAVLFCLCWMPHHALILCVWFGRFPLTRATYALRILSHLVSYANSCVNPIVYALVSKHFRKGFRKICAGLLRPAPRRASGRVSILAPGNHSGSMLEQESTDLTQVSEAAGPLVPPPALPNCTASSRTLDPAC

[1] = target: human GALR3 receptor (human) (UniProt O60755); assay: cell-based or functional assay
Chain of human GALR3 receptor (human) (O60755 whole entry): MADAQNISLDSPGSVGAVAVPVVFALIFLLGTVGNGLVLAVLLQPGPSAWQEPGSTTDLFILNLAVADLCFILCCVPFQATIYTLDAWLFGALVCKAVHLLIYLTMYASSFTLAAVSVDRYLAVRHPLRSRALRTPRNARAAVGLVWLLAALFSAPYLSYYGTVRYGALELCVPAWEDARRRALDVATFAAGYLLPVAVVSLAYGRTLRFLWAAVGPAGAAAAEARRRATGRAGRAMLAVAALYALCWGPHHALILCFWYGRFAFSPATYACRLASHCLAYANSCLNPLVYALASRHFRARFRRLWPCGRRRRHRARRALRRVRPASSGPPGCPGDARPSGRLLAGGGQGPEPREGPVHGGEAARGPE

rat GALR1 receptor (rat) = rat GALR1 receptor (rat) (UniProt Q62805); assay: cell-based or functional assay
Chain of rat GALR1 receptor (rat) (Q62805 whole entry): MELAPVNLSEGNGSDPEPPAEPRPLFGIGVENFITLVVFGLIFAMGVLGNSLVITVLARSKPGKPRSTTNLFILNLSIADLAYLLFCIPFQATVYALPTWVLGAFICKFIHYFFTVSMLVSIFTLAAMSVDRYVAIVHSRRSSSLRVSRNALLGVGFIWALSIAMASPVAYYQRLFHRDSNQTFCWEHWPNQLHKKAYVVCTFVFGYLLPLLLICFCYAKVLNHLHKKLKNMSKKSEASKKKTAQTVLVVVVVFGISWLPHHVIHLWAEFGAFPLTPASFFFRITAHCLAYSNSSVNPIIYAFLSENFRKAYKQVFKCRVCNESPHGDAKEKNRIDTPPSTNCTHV

rat GALR3 receptor = target: T1, rat GALR3 receptor; assay: porcine 125I-galanin competition binding, 293 #105

| EC50, AA (arachidonic acid release), CHO #79 (rat GALR2 receptor (rat)) | Oocyte EC50 for stimulation of GIRKs [1] | EC50, cAMP, LM(tk-) (rat GALR1 receptor (rat)) | Ki (rat GALR3 receptor) | Molecule |
| --- | --- | --- | --- | --- |
| 2.41 nM | 343 nM | 0.52 nM |  | C7 (peptide) |
|  |  |  | 4.17 nM | LGSPVKEKRGWTLNSAGYLLGPHAIDNHRSFHDKYGLA (peptide, UniProt P07480 24-61, looked up, range -9 to +29; also called galanin -9 to +29) [(-)9 to (+)29 galanin, porcine] |
